B1: TPR t1 (parent)
chain: GACCAAUCUGCCCUCAGAGCUCGAGAACAUCUUCGGAUGCAGAGGAGGCAGGCUUCGGUGGCGCGAUAGCGCCAACGUCCUCAACCUCCAAUGCAUCCCACCACAUGAUGAUGCCUGAAGAGCCUUGGUUUUUUG

Variants of: B1
Experiment: polymerase ribozyme fitness, log enrichment relative to wild type (log ratio); higher = more active; in vitro selection for triplet polymerase activity
How it was run: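 PCR was used to build mutant libraries for each subunit of a heterodimeric triplet polymerase ribozyme, which were then transcribed. A single in vitro selection round, in triplicate, used a frozen incubation at −7 °C and recovered extended constructs by gel excision, streptavidin beads and RT-PCR. Fitness is the logarithm of genotype enrichment relative to wild-type enrichment, averaged over replicates with inverse-variance weights. The logarithm is base 2, and after Illumina sequencing only genotypes with ≥10 input reads and ≥1 read per output were kept.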

Row | Variant | polymerase ribozyme fitness (log ratio)
1 | U59A G60A C80U A95C G120U | -2.35
2 | G57U G61C G135A | -2.69
3 | G57U C73U G127U | -1.28
4 | G57A G60U C88U C94U | -1.24
5 | G58C C62U C114A G127A U130G | -5.36
6 | C56U U67A | -5.79
7 | C56U U67C | -4.67
8 | G57C G107C | -6.59
9 | G57U C70U C89U | -1.44
10 | C56U G135U | -1.18
11 | G57A C94G G113A | -3.76
12 | G57C U106A | -0.376
13 | G58A G60A C99U U130A | -5.34
14 | U59C G69U U81A | -1.48
15 | G58U G69A A111C | -5.38
16 | C56U U59A | -0.76
17 | G58A C102U C114A | -4.78
18 | G57U C88A A95U A121U C124U | -1.04
19 | U59G G113U U126A | -3.87
20 | G57U G110A | -1.16
21 | U59C C86U G127C | -2.09
22 | G57A G127U | -1.83
23 | G57C G58A A83U C86A G117U C123U | -6.95
24 | G57A C124A | 0.954

Row | Variant | polymerase ribozyme fitness (log ratio)
25 | C56U U78C A111C G113U | -4.24
26 | U59C U112A | -0.182
27 | U59A A74G C114G U126A G128A | -3.97
28 | G58C C97U U116G G135C | -3.26
29 | U59G C72U C82A G110A | -1.21
30 | C56U G127U | -0.508
31 | G57U G69U C115U G128A | -1.11
32 | U59C C80A U81A | -2.03
33 | G57A G93U | -1.69
34 | U59G C72U C86A | -2.04
35 | C56U U116A G117C | -1.64
36 | C56U U106G U116C | -3.48
37 | U59C C72U | -0.715
38 | G57C G61A G110U C115A | -2.7
39 | G57A G71U | -0.925
40 | U59A C72A | -1.18
41 | G58C C94A | -0.207
42 | G57U C72U | -0.387
43 | G58A A91C C101A | -1.1
44 | G58A C82U G93U C94U U96C C123U | -3.17
45 | G57U A74U C79U | -0.181
46 | G57U C72G C94U G122A | -3
47 | G57U U112A | 1.54
48 | U59C A105U | -2.63

Row | Variant | polymerase ribozyme fitness (log ratio)
49 | G58C G61A U92C | -1.98
50 | G57U G71U U87G | -0.217
51 | U59G C72G | -2.51
52 | G57A C62U | -0.892
53 | G57A G63U U78C A95C C115A | -2.54
54 | U59A G61U G117U | -2.27
55 | G57A A66U C115G | -4.64
56 | G58A A84U | -0.731
57 | U59C U130G | -0.745
58 | G57U U92A G120A A121C | -2.28
59 | U59A A91G A100U G113A | -3.07
60 | G57A C82A | -0.596
61 | C56U G120C G122U | 1.43
62 | G57U C88A | -1.1
63 | G57U C88G | -1.99
64 | U59G C88U | 0.0468
65 | U59G C73U U87G U116A | -4.15
66 | G58A G117A G120A U132C | -3.08
67 | U59G C114A | -1.42
68 | G57A C73G G127C | -2.37
69 | U59C A91U | -2.41
70 | G58U C86U G110U G122A | -3.85
71 | U59A C64U C85A G110U U133C | -2.9
72 | G57C C73U C101A A111C | -0.202

Row | Variant | polymerase ribozyme fitness (log ratio)
73 | G57U U96C G110U | -2.25
74 | G58A U109A | -4.85
75 | G58A U96A | -0.747
76 | C56U U87C | 0.555
77 | G58A C70U C79G A100C | -6.76
78 | U59A U126C | -1.31
79 | G57A G58A A83U | -0.302
80 | C56U U78C U106A G120A | 0.24
81 | G58C C101U | -0.386
82 | G57C C72U U129A | -1.29
83 | C56U U96G | -0.658
84 | C56U U96A | -1.14
85 | G57C G60U C88A U106A | -0.528
86 | G57C A121C | 1.63
87 | U59G C86U U112C | 1.02
88 | U59C G120C G128U U130A | 1.03
89 | G58U C99U G117C U131C | -5.92
90 | G57A U116G | -3.51
91 | G57U C94A C98U C115U | -5.64
92 | G58C C123G G128A | 0.535
93 | G57U G60C G61C G113A | -4.44
94 | U59G G71U G120C U130A | -4.75
95 | G57U C64U U78G C88A C98U U131C | -2.15
96 | G58C C72U | -0.231

Row | Variant | polymerase ribozyme fitness (log ratio)
97 | G58C U116C | -0.944
98 | G58A C62U C88U | -0.946
99 | U59A C76U | -0.808
100 | G58C C86A C115U | -2.72
101 | G57C A83C A111G G122A G127A | -3.51
102 | G57A G93C U130G | -3.23
103 | U59A A74U | -0.959
104 | G57U C99A C124A | -4.71
105 | G57A G58C G63A C89A | -6.16
106 | C56U U125C | -2.74
107 | U59C G93U | -1.12
108 | G58A C72G C82A G110C G113A | -6.33
109 | C56U U112A U134A | 2.39
110 | U59A U129G | -1.18
111 | G57A C79U C102G G107U C115G C124U U129G | -5.93
112 | G57A C73U G110A | -2.06
113 | U59A G77A C79U U87C C114U | -3.41
114 | G57A C80U | -1.38
115 | G58A G69A C88G A121U | -2.86
116 | G57U U87G | 0.0269
117 | G57U U87A | -0.845
118 | G58C A111G G120A | -1.36
119 | G57U U129G | -1.65
120 | U59G G120U C124U | 1.23

Row | Variant | polymerase ribozyme fitness (log ratio)
121 | G58C C98A | -5.61
122 | U59C U87A | -0.642
123 | G57C U78G U112A A118U | 1.26
124 | U59G A111G | 0.731
125 | G57U C72A C88U | -1.77
126 | U59A A83U G93A | -0.452
127 | U59C U109G | -5.76
128 | G57U G60C U96G | -2.78
129 | G58C A68G C86A C115U | -6.11
130 | G57A C82A C102A | -4.09
131 | U59G C82A G110A | -0.532
132 | G58C C62A G69U A119U | -0.99
133 | G57C U116A | -2.89
134 | U59A A121C | 2.1
135 | G58C G113U | -2.87
136 | U59A G71A A91G A100U G113A | -4.54
137 | G57U G120C | 0.593
138 | G58A G61A C73A U92A | -5.1
139 | G58A C99U G122A | -5.04
140 | G58A C73U | -0.192
141 | U59G G117U U131G | -4.31
142 | U59C | -0.0998
143 | U59G | -0.0797
144 | U59A | 0.0811

Row | Variant | polymerase ribozyme fitness (log ratio)
145 | U59C A66U C102U C124U | -4.09
146 | U59G U78C C115U U130C | -1.13
147 | U59A C104A | -1.75
148 | G57U C123A | 0.124
149 | U59C G117C | -3.91
150 | U59C G117U | -2.88
151 | U59C C79U C114U | -1.91
152 | G57A A119G | 0.755
153 | G57A G71U C89U | -1.34
154 | G58U U59A A74U C88A | -0.539
155 | U59G C80A A121C | -0.276
156 | U59C C79A G122A C123A U132A | -2.39
157 | G58C C70A G77C G117A | -7.23
158 | U59G U81A | -0.876
159 | U59C G110U | -1.54
160 | G57C U78C U87C C102A C124A | -0.477
161 | U59A C82U A111G | -0.386
162 | G57A A84U | -0.813
163 | G58C G60U G93U U96G | -1.73
164 | G58U G60C G117U C123A | -2.45
165 | U59A C89U U106A | -0.429
166 | G58U C94U C101G | -1.75
167 | G58A A83C | -0.717
